From paper PMC6881172, “Allosteric modulation of nucleoporin assemblies by intrinsically disordered regions” (Science Advances, 2019)
Several values for one entry are separate records, joined by “and”; a condition that tells them apart may be missing. Equal values may be shown once.

T1: Kap121 (full-length) (Saccharomyces cerevisiae), P32337
T1 chain: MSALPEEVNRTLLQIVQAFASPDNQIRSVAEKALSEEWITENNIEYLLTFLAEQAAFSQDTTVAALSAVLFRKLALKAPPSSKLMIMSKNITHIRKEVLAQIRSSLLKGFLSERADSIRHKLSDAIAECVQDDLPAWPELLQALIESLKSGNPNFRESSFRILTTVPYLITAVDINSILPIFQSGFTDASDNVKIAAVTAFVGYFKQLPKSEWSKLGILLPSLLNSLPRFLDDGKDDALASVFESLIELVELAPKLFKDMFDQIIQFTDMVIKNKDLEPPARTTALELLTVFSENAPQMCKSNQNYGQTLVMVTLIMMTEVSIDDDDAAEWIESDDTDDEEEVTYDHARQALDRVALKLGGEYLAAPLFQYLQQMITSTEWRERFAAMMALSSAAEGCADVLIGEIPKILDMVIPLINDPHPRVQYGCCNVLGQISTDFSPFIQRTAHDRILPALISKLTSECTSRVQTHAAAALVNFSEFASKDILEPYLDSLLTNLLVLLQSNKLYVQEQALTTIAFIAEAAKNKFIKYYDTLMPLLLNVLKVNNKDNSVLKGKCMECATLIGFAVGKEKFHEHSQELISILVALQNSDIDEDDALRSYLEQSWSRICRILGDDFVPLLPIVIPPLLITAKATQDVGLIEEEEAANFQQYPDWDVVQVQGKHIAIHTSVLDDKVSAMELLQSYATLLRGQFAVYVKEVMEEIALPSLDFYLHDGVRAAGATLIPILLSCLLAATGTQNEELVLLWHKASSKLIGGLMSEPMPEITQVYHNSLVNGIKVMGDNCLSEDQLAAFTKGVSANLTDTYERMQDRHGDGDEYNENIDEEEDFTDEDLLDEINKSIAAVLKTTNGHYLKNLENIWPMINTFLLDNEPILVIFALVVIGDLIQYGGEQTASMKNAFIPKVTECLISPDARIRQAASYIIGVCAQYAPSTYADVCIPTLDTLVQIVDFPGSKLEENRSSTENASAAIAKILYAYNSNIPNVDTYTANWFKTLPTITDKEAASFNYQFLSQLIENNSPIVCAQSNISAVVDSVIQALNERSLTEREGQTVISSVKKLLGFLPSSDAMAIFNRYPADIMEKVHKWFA

T2: Nup53 fragment 53NTD (N-terminal IDR) (Saccharomyces cerevisiae)
T2 chain: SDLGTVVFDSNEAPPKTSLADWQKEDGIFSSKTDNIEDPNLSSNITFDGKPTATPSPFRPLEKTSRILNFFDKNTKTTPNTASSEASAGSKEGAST

T3: Kap121 (full-length) (Saccharomyces cerevisiae, UniProt P32337 1-1089)
T3 construct: Kap121 (karyopherin), Saccharomyces cerevisiae, full-length; source: E. coli BL21-CodonPlus(DE3)-RIL, purified (HisTrap HP, TEV cleavage, HiTrap Q, Superdex 200); not shown: SUMO-His6, N-terminal, cleaved
T3 sequence (looked up): T1 chain

B1: Nup53 C-terminal IDR (53C) (domain or fragment)
chain: KKSEEIINNKTSSQTSLSSKDLSNYRKTEGIFEKAKAKAVTSKVRNAEFKVSKNSTSFKNPRRLEIKDGRSLFLRNRGKIHS
modifications: not checked
B2: Nic96 fragment (domain or fragment)
chain: GNNILNSNESRLNVNENNILREKFENYARIVFQFNNSRQANGNFDIANEFISILSSANGTRNAQLLESWKILESMKSKDINIVEVGKQYLEQQFLQYTDNLYKKNMNEGLATNVNKIKSFIDTKLKKADKSWKISNLTVINGVPIWALIFYLLRAGLIKEALQVLVENKANIKKVEQSFLTYFKAYASSKDHGLPVEYSTKLHTEYNQHIKSSLDGDPYRLAVYKLIGRCDLSRKNIPAVTLSIEDWLWMHLMLIKEKDAENDPVYERYSLEDFQNIIISYGPSRFSNYYLQTLLLSGLYGLAIDYTYTFSEMDAVHLAIGLASLKLFKIDSSTRLTKKPKRDIRFANILANYTKSFRYSDPRVAVEYLVLITLNEGPTDVELCHEALRELVLETKEFTVLLGKIGRDGARIPGVIEERQPLLHVRDEKEFLHTITEQAARRADEDGRIYDSILLYQLAEEYDIVITLVNSLLSDTLSASDLDQPLVGPDDNSETNPVLLARRMASIYFDNAGISRQIHVKNKEICMLLLNISSIRELYFNKQWQETLSQMELLDLLPFSDELSARKKAQDFSNLDDNIVKNIPNLLIITLSCISNMIHILNESKYQSSTKGQQIDSLKNVARQCMIYAGMIQYRMPRETYSTLINIDVSL
B3: Nup53 fragment 53CTD (domain or fragment)
chain: RNAEFKVSKNSTSFKNPRRLEIKDGRSLFLRNRGKIHS
B4: Nup53 53core (near-intact Nup53 construct encompassing the N- and C-terminal IDRs and the RRM domain) (domain or fragment)
chain: SDLGTVVFDSNEAPPKTSLADWQKEDGIFSSKTDNIEDPNLSSNITFDGKPTATPSPFRPLEKTSRILNFFDKNTKTTPNTASSEASAGSKEGASTNWDDHAIIIFGYPETIANSIILHFANFGEILEDFRVIKDFKKLNSKNMSKSPSLTAQKYPIYTGDGWVKLTYKSELSKSRALQENGIIMNGTLIGCVSYSPAALKQLASLKKSEEIINNKTSSQTSLSSKDLSNYRKTEGIFEKAKAKAVTSKVRNAEFKVSKNSTSFKNPRRLEIKDGRSLFLRNRGKIHS
B5: Nup157 fragment 157N (domain or fragment)
chain: MYSTPLKKRIDYDRETFTASASLGGNRLRNRPRDDQNNGKPNLSSRSFLSERKTRKDVLNKYGEAGNTIESELRDVTTHVKISGLTSSEPLQLASEFVQDLSFRDRNTPILDNPDYYSKGLDYNFSDEVGGLGAFTPFQRQQVTNIPDEVLSQVSNTEIKSDMGIFLELNYCWITSDNKLILWNINNSSEYHCIDEIEHTILKVKLVKPSPNTFVSSVENLLIVATLFDIYILTISFNDRTHELNIFNTGLKVNVTGFNVSNIISYERTGQIFFTGATDGVNVWELQYNCSENLFNSKSNKICLTKSNLANLLPTKLIPSIPGGKLIQKVLEGDAGTEEETISQLEVDQSRGVLHTLSTKSIVRSYLITSNGLVGPVLIDAAHIRRGMNALGVKNSPLLSNRAFKIAKIVSISMCENNDLFLAVITTTGVRLYFKGSISRRSIGSLKLDSVKFPPTSISSSLEQNKSFIIGHHPLNTHDTGPLSTQKASSTYINTTCASTIISPGIYFTCVRKRANSGELSKGITNKALLENKEEHKLYVSAPDYGILKNYGKYVENTALLDTTDEIKEIVPLTRSFNYTSTPQGYANVFASQYSAEPLKVAVLTSNALEIYCYRTPDEVFESLIENPLPFIHSYGLSEACSTALYLACKFNKSEHIKSSALAFFSAGIPGVVEIKPKSSRESGSVPPISQNLFDKSGECDGIVLSPRFYGSALLITRLFSQIWEERVFVFKRASKTEKMDAFGISITRPQVEYYLSSISVLADFFNIHRPSFVSFVPPKGSNAITASDAESIAMNALILLINSIKDALSLINVFYEDIDAFKSLLNTLMGAGGVYDSKTREYFFDLKFHDLFTPNAKTKQLIKEILIEVVNANIASGTSADYIVNVLKERFG

Key:
[1] = target: human Nup35 RRM domain (human); test: SEC-MALS; human Nup35 RRM domain at 15 mg/ml on Superdex 200 10/300 GL in the ITC binding buffer, room temperature
[2] = target: T1, Kap121 (full-length) (Saccharomyces …); test: ITC; 53C·Kap121 forward and reverse titrations at various protein concentrations, global analysis with a two-mode binding model (1:1 and 2:1 53C:Kap121); 20 mM Hepes pH 7.5, 150 mM NaCl, 0.5 mM TCEP; 15°C
[3] = target: T4, 53core·Kap121 complex (stoichiometric 53core:Kap121 mixture) (Saccharomyces cerevisiae, UniProt Q03790 1-475; P32337 1-1089); test: ITC; Nic96 titrated into stoichiometric 53core:Kap121 or 53core:HsKapβ1 mixtures; single-site 1:1 model; apparent constants; 15°C; settings: both partners purified
[4] = target: 53core·HsKapβ1 complex (stoichiometric 53core:HsKapβ1 mixture) (Saccharomyces cerevisiae | human, UniProt Q03790 1-475; Q14974 1-876); test: as above; settings: both partners purified
Chain of 53core·HsKapβ1 complex (stoichiometric 53core:HsKapβ1 mixture) (Q14974 1-442, one chain of several): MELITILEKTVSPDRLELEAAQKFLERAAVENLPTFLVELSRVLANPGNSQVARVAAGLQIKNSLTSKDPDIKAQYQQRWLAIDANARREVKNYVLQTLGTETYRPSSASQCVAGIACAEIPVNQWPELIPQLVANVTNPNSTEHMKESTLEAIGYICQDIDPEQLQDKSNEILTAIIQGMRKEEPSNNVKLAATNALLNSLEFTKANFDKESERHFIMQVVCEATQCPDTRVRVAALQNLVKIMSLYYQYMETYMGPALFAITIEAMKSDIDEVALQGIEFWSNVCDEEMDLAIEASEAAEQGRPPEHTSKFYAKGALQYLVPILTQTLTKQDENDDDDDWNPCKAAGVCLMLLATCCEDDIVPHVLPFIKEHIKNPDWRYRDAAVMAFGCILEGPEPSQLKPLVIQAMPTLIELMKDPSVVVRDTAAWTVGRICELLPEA

[5] = target: T2, Nup53 fragment 53NTD (N-terminal IDR); test: ITC; single titrations, single-site 1:1 binding model where fitted; 20 mM Hepes pH 7.5, 150 mM NaCl, 0.5 mM TCEP; 15°C; Kap121 150 μM with Nup53 fragments 15 μM; settings: both partners purified
[6] = target: B4; test: as above; settings: both partners purified
[7] = target: T4, 53core·Kap121 complex (stoichiometric …); test: ITC; Nic96 titrations into 53core:Kap121 mixtures, global analysis with a multiple-equilibrium model that separates monomeric and dimeric 53core·Kap121 complexes; 15°C; settings: both partners purified
Kap121 (full-length) [8] = target: T3, Kap121 (full-length); test: ITC; single titrations, single-site 1:1 binding model where fitted; 20 mM Hepes pH 7.5, 150 mM NaCl, 0.5 mM TCEP; 15°C; Kap121 150 μM with Nup53 fragments 15 μM; settings: both partners purified
[9] = target: the molecule itself; test: ITC; dimer to monomers: concentrated 53core injected in 2-μl increments into buffer, three protein concentrations, monomer-dimer equilibrium model; constant printed for 2A ↔ A2; 15°C
[10] = target: the molecule itself; test: as above; remark: listed apart in the source
Kap121 (full-length) [11] = target: T3, Kap121 (full-length); test: ITC; forward and reverse titrations with Kap121 at various protein concentrations, global analysis with a multiple-equilibrium model (53core dimerization, monomer constants fixed at the 53C values); 15°C; settings: both partners purified
Nup53 fragment 53CTD = target: B3; test: ITC; single titrations, single-site 1:1 binding model where fitted; 20 mM Hepes pH 7.5, 150 mM NaCl, 0.5 mM TCEP; 15°C; Kap121 150 μM with Nup53 fragments 15 μM; settings: both partners purified

Molecule: human Nup35 RRM domain (domain or fragment)
- stoichiometry N [1]: 2

Molecule: B1
- K of the 2:1 mode (2A + B ↔ A2*B) [2]: 1.9e+11 M^-2
- KA of the 1:1 mode (A + B ↔ AB) [2]: 4.2e+06 M⁻¹
- KA per IDR binding (square root of the 2:1 constant) [2]: 440000 M⁻¹
- dH of the 1:1 mode (A + B ↔ AB) [2]: -2.7 kcal/mol
- dH of the 2:1 mode (2A + B ↔ A2*B) [2]: 4.2 kcal/mol
- stoichiometry N [2]: 2 and 1

Molecule: B2
- Ka [3]: 130000 M⁻¹
- dH [3]: -5.2 kcal/mol
- Ka [4]: 100000 M⁻¹
- dH [4]: -5.1 kcal/mol
- Ka [5]: 700000 M⁻¹
- stoichiometry N [5]: 1
- Ka [6]: 990000 M⁻¹
- dH [6]: -4.4 kcal/mol
- KA for the dimeric 53core·Kap121 complexes (A2Bi + C ↔ A2BiC) [7]: 120000 M⁻¹
- KA for the monomeric 53core·Kap121 complex (AB + C ↔ ABC) [7]: 200000 M⁻¹
- dH for the dimeric 53core·Kap121 complexes (A2Bi + C ↔ A2BiC) [7]: -2.5 kcal/mol
- dH for the monomeric 53core·Kap121 complex (AB + C ↔ ABC) [7]: -6.7 kcal/mol

Molecule: B3
- Ka (Kap121 (full-length) [8]): 210000 M⁻¹
- fold weaker than the canonical NLS peptide (Kap121 (full-length) [8]): ~45 fold
- stoichiometry N (Kap121 (full-length) [8]): 1

Molecule: B4
- stoichiometry N [9]: 2
- Ka [10]: 10000 M⁻¹
- dH [10]: 6.5 kcal/mol
- KA of the 53core dimer with one Kap121 (A2 + B ↔ A2B) (Kap121 (full-length) [11]): 5.6e+07 M⁻¹
- dH of A2 + 2B ↔ A2B2 (Kap121 (full-length) [11]): -1.3 kcal/mol
- dH of A2 + B ↔ A2B (Kap121 (full-length) [11]): 16.3 kcal/mol

Molecule: B5
- Ka (Nup53 fragment 53CTD): 1.6e+06 M⁻¹
- stoichiometry N (Nup53 fragment 53CTD): 1
- Ka [6]: 1.1e+06 M⁻¹
- dH [6]: -10.1 kcal/mol
